Here are results for two molecules from paper PMC12345223.

This series addresses T1, ChCpc1;ChAtf1 (Cochliobolus heterostrophus C4 (Tox1+, …, UniProt M2T2C6;M2TIN4 1-465;1-567, |)).
T1 sequence 1: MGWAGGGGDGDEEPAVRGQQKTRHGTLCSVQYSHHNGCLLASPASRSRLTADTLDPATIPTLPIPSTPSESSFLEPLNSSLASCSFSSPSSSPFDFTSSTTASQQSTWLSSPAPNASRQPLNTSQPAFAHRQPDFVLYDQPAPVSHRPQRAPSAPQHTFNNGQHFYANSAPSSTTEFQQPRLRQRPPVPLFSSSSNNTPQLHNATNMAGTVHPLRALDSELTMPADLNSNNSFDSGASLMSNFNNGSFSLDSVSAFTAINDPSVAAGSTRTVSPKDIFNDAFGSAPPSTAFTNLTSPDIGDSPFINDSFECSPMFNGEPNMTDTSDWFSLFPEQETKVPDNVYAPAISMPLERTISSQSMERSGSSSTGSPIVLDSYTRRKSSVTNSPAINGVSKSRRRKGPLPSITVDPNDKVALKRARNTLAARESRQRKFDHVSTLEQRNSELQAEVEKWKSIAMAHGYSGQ
T1 sequence 2: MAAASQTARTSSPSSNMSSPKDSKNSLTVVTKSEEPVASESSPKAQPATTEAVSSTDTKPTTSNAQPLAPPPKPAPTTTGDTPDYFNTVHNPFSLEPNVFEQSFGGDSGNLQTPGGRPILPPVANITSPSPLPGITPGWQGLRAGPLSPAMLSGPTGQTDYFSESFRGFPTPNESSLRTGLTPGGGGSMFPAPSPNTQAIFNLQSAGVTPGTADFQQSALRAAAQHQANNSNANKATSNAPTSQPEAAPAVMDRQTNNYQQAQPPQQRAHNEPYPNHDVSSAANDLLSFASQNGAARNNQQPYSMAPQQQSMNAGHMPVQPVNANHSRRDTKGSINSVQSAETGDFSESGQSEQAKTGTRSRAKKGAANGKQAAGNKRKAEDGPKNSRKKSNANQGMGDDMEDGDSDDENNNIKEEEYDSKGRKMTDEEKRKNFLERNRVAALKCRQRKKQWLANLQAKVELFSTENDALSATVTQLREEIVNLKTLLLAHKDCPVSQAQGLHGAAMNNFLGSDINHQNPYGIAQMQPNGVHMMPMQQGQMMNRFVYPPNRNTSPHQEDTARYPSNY
Briefly: EMSA; enhanced versus ChCpc1 alone; Light Shift Chemiluminescent EMSA Kit (Beyotime), 20 min at 25°C; 6.5% polyacrylamide gel, 0.5x TBE; binding buffer, salt and pH not stated. To be noted: protein: recombinant;recombinant; tags: His (pET-32a);His (pET32a); copies: 1;1; label: biotin (on forward strand); blunt.

B1: ChATG8 promoter probe (dsDNA)
DNA 1: GGAGAGCGTGAAGGAGAGAGACGGGATGAGTCAAAGTACCCAGGTAGCCAGGTCATGGGA
DNA 2: TCCCATGACCTGGCTACCTGGGTACTTTGACTCATCCCGTCTCTCTCCTTCACGCTCTCC
For B1, the binding result is “binds”.

B2: ChARG4 promoter probe (dsDNA)
DNA 1: CATTGGCGTTTGGGACTGAATTACAATGAGTAATGAAATAACTCACACCACAAAGCAGTA
DNA 2: TACTGCTTTGTGGTGTGAGTTATTTCATTACTCATTGTAATTCAGTCCCAAACGCCAATG
With B2, the binding result is given as “binds”.
